We go through eight molecules from patent publication US7256007B2, “Methods of regulating cytokine signalling” (The Walter and Eliza Hall Institute of Medical Research, priority 2000, dated 2007).

For orientation: IC50 means the point on the concentration scale where inhibition reaches its midpoint.

Square brackets hold non-standard residues; d marks the D form. Ends that are not written are not given here. pY = N[C@@H](Cc1ccc(OP(=O)(O)O)cc1)C(=O)O

The labels stand for the following.
T1: SOCS-3 (Mus musculus, UniProt O35718)
T1 construct: hexahistidine (pET15b) (N); made in house; host or cells: E. coli BL21 DE3 pLysS
T1 sequence (O35718 1-225): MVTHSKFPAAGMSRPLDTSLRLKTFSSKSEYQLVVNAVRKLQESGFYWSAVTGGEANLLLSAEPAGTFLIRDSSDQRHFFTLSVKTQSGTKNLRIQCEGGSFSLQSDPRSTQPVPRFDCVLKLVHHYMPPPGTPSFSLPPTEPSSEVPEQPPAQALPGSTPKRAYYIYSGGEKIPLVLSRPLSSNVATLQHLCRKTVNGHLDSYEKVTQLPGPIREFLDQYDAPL

T2: gp130(674-688) pY681 control phosphopeptide (mouse, not fully specified (N-terminus); printed as FNSKDQM(pY)SDGNFTD; also: biotinylated, site not given here)
T2 chain: FNSKDQM[pY]SDGNFTD-NH2

B1: gp130 phosphopeptide S9A (peptide)
chain: STASTVE[pY]ATVVHSG-NH2
modifications: N-terminus assumed
SMILES: CC(C)[C@H](NC(=O)[C@@H](NC(=O)[C@@H](NC(=O)[C@H](C)NC(=O)[C@H](Cc1ccc(OP(=O)(O)O)cc1)NC(=O)[C@H](CCC(=O)O)NC(=O)[C@@H](NC(=O)[C@@H](NC(=O)[C@H](CO)NC(=O)[C@H](C)NC(=O)[C@@H](NC(=O)[C@@H](N)CO)[C@@H](C)O)[C@@H](C)O)C(C)C)[C@@H](C)O)C(C)C)C(=O)N[C@@H](Cc1c[nH]cn1)C(=O)N[C@@H](CO)C(=O)NCC(N)=O
B2: AcAE(pY)STVVHSG (peptide)
chain: Ac-AE[pY]STVVHSG-NH2
SMILES: CC(=O)N[C@@H](C)C(=O)N[C@@H](CCC(=O)O)C(=O)N[C@@H](Cc1ccc(OP(=O)(O)O)cc1)C(=O)N[C@@H](CO)C(=O)N[C@H](C(=O)N[C@H](C(=O)N[C@H](C(=O)N[C@@H](Cc1c[nH]cn1)C(=O)N[C@@H](CO)C(=O)NCC(N)=O)C(C)C)C(C)C)[C@@H](C)O
B3: STASTVE(pY)STVVHS (peptide)
chain: STASTVE[pY]STVVHS-NH2
modifications: N-terminus assumed
SMILES: CC(C)[C@H](NC(=O)[C@@H](NC(=O)[C@@H](NC(=O)[C@H](CO)NC(=O)[C@H](Cc1ccc(OP(=O)(O)O)cc1)NC(=O)[C@H](CCC(=O)O)NC(=O)[C@@H](NC(=O)[C@@H](NC(=O)[C@H](CO)NC(=O)[C@H](C)NC(=O)[C@@H](NC(=O)[C@@H](N)CO)[C@@H](C)O)[C@@H](C)O)C(C)C)[C@@H](C)O)C(C)C)C(=O)N[C@@H](Cc1c[nH]cn1)C(=O)N[C@@H](CO)C(N)=O
B4: SOCS-3 (recombinant, His-tagged) (protein)
chain: T1 sequence (O35718 1-225)
B5: STASTVE(pY)STVVH (peptide)
chain: STASTVE[pY]STVVH-NH2
modifications: N-terminus assumed
SMILES: CC(C)[C@H](NC(=O)[C@@H](NC(=O)[C@@H](NC(=O)[C@H](CO)NC(=O)[C@H](Cc1ccc(OP(=O)(O)O)cc1)NC(=O)[C@H](CCC(=O)O)NC(=O)[C@@H](NC(=O)[C@@H](NC(=O)[C@H](CO)NC(=O)[C@H](C)NC(=O)[C@@H](NC(=O)[C@@H](N)CO)[C@@H](C)O)[C@@H](C)O)C(C)C)[C@@H](C)O)C(C)C)C(=O)N[C@@H](Cc1c[nH]cn1)C(N)=O
B6: gp130 phosphopeptide V11A (peptide)
chain: STASTVE[pY]STAVHSG-NH2
modifications: N-terminus assumed
SMILES: CC(C)[C@H](NC(=O)[C@H](C)NC(=O)[C@@H](NC(=O)[C@H](CO)NC(=O)[C@H](Cc1ccc(OP(=O)(O)O)cc1)NC(=O)[C@H](CCC(=O)O)NC(=O)[C@@H](NC(=O)[C@@H](NC(=O)[C@H](CO)NC(=O)[C@H](C)NC(=O)[C@@H](NC(=O)[C@@H](N)CO)[C@@H](C)O)[C@@H](C)O)C(C)C)[C@@H](C)O)C(=O)N[C@@H](Cc1c[nH]cn1)C(=O)N[C@@H](CO)C(=O)NCC(N)=O

One assay has as its target T1, SOCS-3. Briefly: Biosensor (SPR) analysis of recombinant SOCS-3 binding to immobilized biotinylated phosphopeptide. Further details: species or system murine. Particulars: non-specific control channel on the same chip. On the procedure: Purified protein was refolded by dialysis into PBS containing 2 mM DTT, 2 mM EDTA and 0.02% v/v Tween 20. Refolded material was purified to homogeneity by ion exchange chromatography on a Mono S column (Pharmacia).
Phosphopeptides containing an N-terminal biotin moiety were immobilized onto a streptavidin-coated Biosensor chip (Pharmacia) at a density of ˜200 Resonance Units (Rus). […] Binding profiles were analyzed using the BIAevaluation software version 3.0 (Pharmacia).

A further assay deals with EPOR/gp130Y757F. Briefly: APRE-luc luciferase reporter assay in transiently transfected 293T cells, EPO stimulated. Particulars: gp130 cytoplasmic domain with Y757F mutation, 10U/ml EPO overnight. It is filed as cell-based. On the procedure:
Generation of the expression vectors for SOCS-1 and SOCS-3, luciferase assays and Western blot analysis have been described previously (Nicholson et al., 1999). Briefly, 293T cells were transiently transfected with SOCS expression plasmids, a LIF-responsive reporter construct (APRE-luc; Endo et al., 1997) and a β-galactosidase reporter construct under a constitutive promoter (Srα-β-gal; Ogilvy et al., 1998). Luciferase activity from triplicate samples was determined and normalized against β-galactosidase activity.
It was therefore important to confirm these findings using a biological assay. A chimeric receptor was created that contained the erythropoietin receptor (EPOR) extracellular domain and the gp130 cytoplasmic domain (EPOR/gp130). A second receptor was created containing the EPO receptor extracellular domain and the gp130 cytoplasmic domain in which tyrosine 757 had been mutated to phenylalanine (EPOR/gp130Y757F). 293T cells were transiently transfected with cDNAs expressing the receptor constructs and either SOCS-3 or SOCS-1 in the presence of the APRE-luc and Srα-β-gal reporter genes. Cells were then incubated in the presence of 10U/ml EPO overnight and luciferase activity determined. Mutation of Y757 in the gp130 cytoplasmic domain has been reported to result in a hyperactive receptor complex, presumably from the loss of a negative regulator such as SHP-2. […]

Assay [1] concerns the target B4. Nature of the assay: competition, SPR.
For assay [2], the target named is T2, gp130(674-688) pY681 control …. Briefly: SPR. A general note: In SPR one partner is held on a chip, and binding of the other changes the refractive index at the surface.

Chain of EPOR/gp130Y757F (Q00560 640-917 Y757F limits assumed): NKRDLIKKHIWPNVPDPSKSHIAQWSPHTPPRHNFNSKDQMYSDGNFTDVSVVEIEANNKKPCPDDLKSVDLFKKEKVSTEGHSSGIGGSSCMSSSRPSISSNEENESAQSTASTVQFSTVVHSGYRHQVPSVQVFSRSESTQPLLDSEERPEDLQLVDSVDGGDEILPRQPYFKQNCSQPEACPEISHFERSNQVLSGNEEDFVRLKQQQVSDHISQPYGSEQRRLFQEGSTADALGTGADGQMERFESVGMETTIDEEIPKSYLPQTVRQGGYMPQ

For “FNSKDQM(pY)SDGNFTD (FNSKDQM[pY]SDGNFTD-NH2; N-terminus assumed; SMILES CSCC[C@H](NC(=O)[C@H](CCC(N)=O)NC(=O)[C@H](CC(=O)O)NC(=O)[C@H](CCCCN)NC(=O)[C@H](CO)NC(=O)[C@H](CC(N)=O)NC(=O)[C@@H](N)Cc1ccccc1)C(=O)N[C@@H](Cc1ccc(OP(=O)(O)O)cc1)C(=O)N[C@@H](CO)C(=O)N[C@@H](CC(=O)O)C(=O)NCC(=O)N[C@@H](CC(N)=O)C(=O)N[C@@H](Cc1ccccc1)C(=O)N[C@H](C(=O)N[C@@H](CC(=O)O)C(N)=O)[C@@H](C)O) [gp30(674-688) phosphopeptide, non-cognate gp130 phosphopeptide immobilized as non-specific control]”, the “specific binding of SOCS-3 to immobilized peptide” value with SOCS-3 is “no specific binding was detected”.
With “SOCS-3: suppressor of cytokine signaling 3, expressed from transfected cDNA in 293T cells”, the “SOCS-3 DNA giving 50% inhibition of luciferase activity” value in the assay with EPOR/gp130Y757F is listed as 54 ng.
On to B1, for which the IC50 in assay [1] came to 72 nM.
Still for that read-out and setting: then B2, with 580 nM.
On the same count and under the same terms, then B3, with 61 nM.
As for B4, the binding result in assay [2] was “no binding”.
In the case of B5, the IC50 in assay [1] is 77 nM.
Same read-out and setting: then B6, with 3400 nM.
